The values that follow are results of earlier work, collected in PMC9736027.

This data set addresses Nrf2 (Homo sapiens) (UniProt Q16236).
UniProt Q16236, sequence (Q16236 whole entry): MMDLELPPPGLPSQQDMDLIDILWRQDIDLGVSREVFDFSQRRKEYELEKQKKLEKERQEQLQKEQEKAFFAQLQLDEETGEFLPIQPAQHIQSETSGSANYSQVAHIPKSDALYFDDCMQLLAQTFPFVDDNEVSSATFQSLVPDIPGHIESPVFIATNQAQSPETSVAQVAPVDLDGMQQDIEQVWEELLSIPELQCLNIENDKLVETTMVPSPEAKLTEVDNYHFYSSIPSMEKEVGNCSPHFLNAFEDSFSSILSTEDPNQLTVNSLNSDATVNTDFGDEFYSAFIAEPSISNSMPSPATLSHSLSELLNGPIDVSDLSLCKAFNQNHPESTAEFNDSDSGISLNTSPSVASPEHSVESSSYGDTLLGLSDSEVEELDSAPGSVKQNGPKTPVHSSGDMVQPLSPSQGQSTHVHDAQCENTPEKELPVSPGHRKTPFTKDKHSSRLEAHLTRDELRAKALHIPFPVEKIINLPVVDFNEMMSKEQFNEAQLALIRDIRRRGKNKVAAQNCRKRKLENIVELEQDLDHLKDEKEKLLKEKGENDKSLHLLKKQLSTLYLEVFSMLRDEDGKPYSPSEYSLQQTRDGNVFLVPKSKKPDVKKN

Keap1 (from UniProt Q14145): the Kd was 20 nM.
